According to US20250152742A1, “COMPOSITIONS AND METHODS FOR NEUROLOGICAL DISEASES” (Trames Bio, Inc., priority 2022, published 2025):

Test system: engineered chimeric receptor SEQ ID NO: 33 and its mutants (human α7-nAChR ligand binding domain / human GlyRα1 ion pore domain) in Lenti-X 293T cells
Experiment: YFP fluorescence quenching anion reporter plate reader assay (percent quench, EC50)
Format: cell-based
Conditions: for YFP fluorescence quenching using CNL001 (percent quench): receptor named in row; for YFP fluorescence quenching using Varenicline, 3 nM var: ligand Varenicline 3 nM; for YFP fluorescence quenching using Varenicline, 30 nM var: ligand Varenicline 30 nM; for YFP fluorescence quenching using Varenicline, 300 nM var: ligand Varenicline 300 nM; for YFP fluorescence quenching using Varenicline, 500 nM var: ligand Varenicline 500 nM; for YFP fluorescence quenching using Varenicline, 1 uM var: ligand Varenicline 1 uM
Outline: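 Lenti-X 293T cells co-expressing an anion-quenchable YFP were transiently transfected with receptor DNA, then ligand was added in NaI-substituted buffer (pH 7.2) after 30 min at 37 °C. Fluorescence was read about 2 min; percent quench = mean of last 10 s over 15 s pre-ligand baseline.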

[1] = 1 nM CNL001, first column so headed
[2] = 1 nM CNL001, second column so headed
[3] = 1 nM brd (TC-5619/Bradanicline)
[4] = 3 nM brd (TC-5619/Bradanicline)
[5] = 10 nM CNL001, first column so headed
[6] = 10 nM CNL001, second column so headed
[7] = 10 nM brd (TC-5619/Bradanicline)
[8] = 30 nM brd (TC-5619/Bradanicline)
[9] = 50 nM CNL001, first column so headed
[10] = 50 nM CNL001, second column so headed
[11] = 100 nM CNL001, first column so headed
[12] = 100 nM CNL001, second column so headed
[13] = 100 nM brd (TC-5619/Bradanicline)
[14] = 300 nM brd (TC-5619/Bradanicline)
[15] = 1 uM CNL001, first column so headed
[16] = 1 uM CNL001, second column so headed

B1: CODA1055: engineered receptor: R101W, Y115E, Y210W in SEQ ID NO: 33 (protein)
chain: MRCSPGGVWLALAASLLHVSLQGEFQRKLYKELVKNYNPLERPVANDSQPLTVYFSLSLLQIMDVDEKNQVLTTNIWLQMSWTDHYLQWNVSEYPGVKTVWFPDGQIWKPDILLENSADERFDATFHTNVLVNSSGHCQYLPPGIFKSSCPMDLKNFPMDVQTCKLKFGSWSYGGWSLDLQMQEADISGYIPNGEWDLVGIPGKRSERFWECCKEPYPDVTFTVTMRRRMGYYLIQMYIPSLLIVILSWISFWINMDAAPARVGLGITTVLTMTTQSSGSRASLPKVSYVKAIDIWMAVCLLFVFSALLEYAAVNFVSRQHKELLRFRRKRRHHKSPMLNLFQEDEAGEGRFNFSAYGMGPACLQAKDGISVKGANNSNTTNPPPAPSKSPEEMRKLFIQRAKKIDKISRIGFPMAFLIFNMFYWIIYKIVRREDVHNQ
modifications: synthetic sequence of chimeric LGIC
YFP fluorescence quenching using CNL001 (percent quench) [1]: −12.889%
YFP fluorescence quenching using CNL001 (percent quench) [2]: −13.295%
YFP fluorescence quenching using TC-5619/Bradanicline (percent quench) [3]: −8.113%
YFP fluorescence quenching using TC-5619/Bradanicline (percent quench) [4]: −11.136%
YFP fluorescence quenching using CNL001 (percent quench) [5]: −10.401%
YFP fluorescence quenching using CNL001 (percent quench) [6]: −7.981%
YFP fluorescence quenching using TC-5619/Bradanicline (percent quench) [7]: 38.755%
YFP fluorescence quenching using TC-6683 (percent quench) (30 nM TC-6683): −30.056%
YFP fluorescence quenching using TC-5619/Bradanicline (percent quench) [8]: 39.111%
YFP fluorescence quenching using CNL001 (percent quench) [9]: −1.972%
YFP fluorescence quenching using CNL001 (percent quench) [10]: −1.661%
YFP fluorescence quenching using ABT-126 (percent quench) (50 nM abt (ABT-126)): −21.36%
YFP fluorescence quenching using CNL001 (percent quench) [11]: 0.277%
YFP fluorescence quenching using CNL001 (percent quench) [12]: 4.325%
YFP fluorescence quenching using ABT-126 (percent quench) (100 nM abt (ABT-126)): −22.28%
YFP fluorescence quenching using TC-5619/Bradanicline (percent quench) [13]: 61.378%
YFP fluorescence quenching using TC-6683 (percent quench) (300 nM TC-6683): −30.801%
YFP fluorescence quenching using ABT-126 (percent quench) (300 nM abt (ABT-126)): −14.63%
YFP fluorescence quenching using TC-5619/Bradanicline (percent quench) [14]: 52.398%
YFP fluorescence quenching using CNL001 (percent quench) [15]: 2.88%
YFP fluorescence quenching using CNL001 (percent quench) [16]: 3.259%
YFP fluorescence quenching using ABT-126 (percent quench) (1 uM abt (ABT-126)): −7.34%
YFP fluorescence quenching using TC-6683 (percent quench) (3 uM TC-6683): −25.558%
YFP fluorescence quenching using TC-6683 (percent quench) (30 uM TC-6683): −18.295%
YFP fluorescence quenching using TC-6683 (percent quench) (100 uM TC-6683): −17.554%
YFP fluorescence quenching (percent quench) (100 uM ach (acetylcholine)): −15.63%
YFP fluorescence quenching (percent quench) (300 uM ach (acetylcholine)): −12.05%
YFP fluorescence quenching (percent quench) (500 uM ach (acetylcholine)): −12.87%
YFP fluorescence quenching (percent quench) (1 mM ach (acetylcholine)): −11.55%
YFP fluorescence quenching (percent quench) (3 mM ach (acetylcholine)): 12.68%
YFP fluorescence quenching (percent quench) (10 mM ach (acetylcholine)): 37.58%
YFP fluorescence quenching using Varenicline, 3 nM var (first column): 0.468
YFP fluorescence quenching using Varenicline, 3 nM var (second column): −10.015
YFP fluorescence quenching using Varenicline, 30 nM var (first column): −15.532
YFP fluorescence quenching using Varenicline, 30 nM var (second column): −14.462
YFP fluorescence quenching using Varenicline, 300 nM var (first column): −17.027
YFP fluorescence quenching using Varenicline, 300 nM var (second column): −15.59
YFP fluorescence quenching using Varenicline, 500 nM var (first column): −13.343
YFP fluorescence quenching using Varenicline, 500 nM var (second column): −10.702
YFP fluorescence quenching using Varenicline, 1 uM var (first column): −6.604
YFP fluorescence quenching using Varenicline, 1 uM var (second column): −7.612

B2: CODA1056: engineered receptor: R101F, Y115E, Y210W in SEQ ID NO: 33 (protein)
chain: MRCSPGGVWLALAASLLHVSLQGEFQRKLYKELVKNYNPLERPVANDSQPLTVYFSLSLLQIMDVDEKNQVLTTNIWLQMSWTDHYLQWNVSEYPGVKTVFFPDGQIWKPDILLENSADERFDATFHTNVLVNSSGHCQYLPPGIFKSSCPMDLKNFPMDVQTCKLKFGSWSYGGWSLDLQMQEADISGYIPNGEWDLVGIPGKRSERFWECCKEPYPDVTFTVTMRRRMGYYLIQMYIPSLLIVILSWISFWINMDAAPARVGLGITTVLTMTTQSSGSRASLPKVSYVKAIDIWMAVCLLFVFSALLEYAAVNFVSRQHKELLRFRRKRRHHKSPMLNLFQEDEAGEGRFNFSAYGMGPACLQAKDGISVKGANNSNTTNPPPAPSKSPEEMRKLFIQRAKKIDKISRIGFPMAFLIFNMFYWIIYKIVRREDVHNQ
modifications: synthetic sequence of chimeric LGIC
YFP fluorescence quenching using CNL001 (percent quench) [1]: −8.104%
YFP fluorescence quenching using CNL001 (percent quench) [2]: −12.153%
YFP fluorescence quenching using TC-5619/Bradanicline (percent quench) [3]: −7.894%
YFP fluorescence quenching using TC-5619/Bradanicline (percent quench) [4]: −11.812%
YFP fluorescence quenching using CNL001 (percent quench) [5]: −10.462%
YFP fluorescence quenching using CNL001 (percent quench) [6]: −4.735%
YFP fluorescence quenching using TC-5619/Bradanicline (percent quench) [7]: 36.211%
YFP fluorescence quenching using TC-6683 (percent quench) (30 nM TC-6683): −19.889%
YFP fluorescence quenching using TC-5619/Bradanicline (percent quench) [8]: 40.624%
YFP fluorescence quenching using CNL001 (percent quench) [9]: −8.617%
YFP fluorescence quenching using CNL001 (percent quench) [10]: −1.606%
YFP fluorescence quenching using ABT-126 (percent quench) (50 nM abt (ABT-126)): −20.96%
YFP fluorescence quenching using CNL001 (percent quench) [11]: −1.243%
YFP fluorescence quenching using CNL001 (percent quench) [12]: 1.838%
YFP fluorescence quenching using ABT-126 (percent quench) (100 nM abt (ABT-126)): −21.95%
YFP fluorescence quenching using TC-5619/Bradanicline (percent quench) [13]: 65.869%
YFP fluorescence quenching using TC-6683 (percent quench) (300 nM TC-6683): −22.443%
YFP fluorescence quenching using ABT-126 (percent quench) (300 nM abt (ABT-126)): −10.96%
YFP fluorescence quenching using TC-5619/Bradanicline (percent quench) [14]: 59.661%
YFP fluorescence quenching using CNL001 (percent quench) [15]: −0.567%
YFP fluorescence quenching using CNL001 (percent quench) [16]: 4.663%
YFP fluorescence quenching using ABT-126 (percent quench) (1 uM abt (ABT-126)): 10.79%
YFP fluorescence quenching using TC-6683 (percent quench) (3 uM TC-6683): −12.623%
YFP fluorescence quenching using TC-6683 (percent quench) (30 uM TC-6683): −10.728%
YFP fluorescence quenching using TC-6683 (percent quench) (100 uM TC-6683): −10.959%
YFP fluorescence quenching (percent quench) (100 uM ach (acetylcholine)): −20.55%
YFP fluorescence quenching (percent quench) (300 uM ach (acetylcholine)): −19.32%
YFP fluorescence quenching (percent quench) (500 uM ach (acetylcholine)): −19.75%
YFP fluorescence quenching (percent quench) (1 mM ach (acetylcholine)): −14.08%
YFP fluorescence quenching (percent quench) (3 mM ach (acetylcholine)): 14.07%
YFP fluorescence quenching (percent quench) (10 mM ach (acetylcholine)): 25.7%

B3: CODA1138: engineered receptor: W77F, R101F, L131D in SEQ ID NO: 33 (protein)
chain: MRCSPGGVWLALAASLLHVSLQGEFQRKLYKELVKNYNPLERPVANDSQPLTVYFSLSLLQIMDVDEKNQVLTTNIFLQMSWTDHYLQWNVSEYPGVKTVFFPDGQIWKPDILLYNSADERFDATFHTNVDVNSSGHCQYLPPGIFKSSCPMDLKNFPMDVQTCKLKFGSWSYGGWSLDLQMQEADISGYIPNGEWDLVGIPGKRSERFYECCKEPYPDVTFTVTMRRRMGYYLIQMYIPSLLIVILSWISFWINMDAAPARVGLGITTVLTMTTQSSGSRASLPKVSYVKAIDIWMAVCLLFVFSALLEYAAVNFVSRQHKELLRFRRKRRHHKSPMLNLFQEDEAGEGRFNFSAYGMGPACLQAKDGISVKGANNSNTTNPPPAPSKSPEEMRKLFIQRAKKIDKISRIGFPMAFLIFNMFYWIIYKIVRREDVHNQ
modifications: synthetic sequence of chimeric LGIC
YFP fluorescence quenching using CNL001 (percent quench) [1]: −6.175%
YFP fluorescence quenching using CNL001 (percent quench) [2]: 5.89%
YFP fluorescence quenching (percent quench) (1 nM CNL002): −2.209%
YFP fluorescence quenching using CNL001 (percent quench) [5]: −2.032%
YFP fluorescence quenching using CNL001 (percent quench) [6]: 7.601%
YFP fluorescence quenching (percent quench) (10 nM CNL002): 43.044%
YFP fluorescence quenching using CNL001 (percent quench) [9]: 9.263%
YFP fluorescence quenching using CNL001 (percent quench) [10]: 4.423%
YFP fluorescence quenching (percent quench) (50 nM CNL002): 73.418%
YFP fluorescence quenching using ABT-126 (percent quench) (50 nM abt (ABT-126)): −11.71%
YFP fluorescence quenching using CNL001 (percent quench) [11]: 24%
YFP fluorescence quenching using CNL001 (percent quench) [12]: 30.448%
YFP fluorescence quenching (percent quench) (100 nM CNL002): 81.66%
YFP fluorescence quenching using ABT-126 (percent quench) (100 nM abt (ABT-126)): −5.13%
YFP fluorescence quenching using ABT-126 (percent quench) (300 nM abt (ABT-126)): 15.09%
YFP fluorescence quenching using CNL001 (percent quench) [15]: 73.823%
YFP fluorescence quenching using CNL001 (percent quench) [16]: 73.271%
YFP fluorescence quenching (percent quench) (1 uM CNL002): 81.69%
YFP fluorescence quenching using ABT-126 (percent quench) (1 uM abt (ABT-126)): 56.63%
YFP fluorescence quenching using ABT-126 (percent quench) (10 uM abt (ABT-126)): 75.93%
YFP fluorescence quenching (percent quench) (10 uM ach (acetylcholine)): −12.92%
YFP fluorescence quenching (percent quench) (30 uM ach (acetylcholine)): −15.36%
YFP fluorescence quenching (percent quench) (100 uM ach (acetylcholine)): −19.35%
YFP fluorescence quenching (percent quench) (300 uM ach (acetylcholine)): −14.79%
YFP fluorescence quenching (percent quench) (1 mM ach (acetylcholine)): 37.5%
YFP fluorescence quenching (percent quench) (3 mM ach (acetylcholine)): 61.73%
YFP fluorescence quenching using Varenicline, 3 nM var (first column): 3.893
YFP fluorescence quenching using Varenicline, 3 nM var (second column): 1.107
YFP fluorescence quenching using Varenicline, 30 nM var (first column): 0.972
YFP fluorescence quenching using Varenicline, 30 nM var (second column): 0.872
YFP fluorescence quenching using Varenicline, 300 nM var (first column): 2.282
YFP fluorescence quenching using Varenicline, 300 nM var (second column): −0.288
YFP fluorescence quenching using Varenicline, 500 nM var (first column): 3.637
YFP fluorescence quenching using Varenicline, 500 nM var (second column): −1.804
YFP fluorescence quenching using Varenicline, 1 uM var (first column): −1.84
YFP fluorescence quenching using Varenicline, 1 uM var (second column): 6.36
